Experiment: yeast display, Sf9 membrane polyspecificity reagent, FACS + sequencing; frameworks hold sequencing errors
How it was run: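 Nanobodies came from a synthetic yeast display library in Saccharomyces cerevisiae BJ5465, induced with galactose for 36–48 hours and stained for 1 hour at 4 °C with 10% biotinylated, detergent-solubilized Sf9 membrane reagent. Cells were enriched on streptavidin microbeads and then FACS-sorted, with low and high (top ~1%) gates set on anti-HA fluorescence for expression and streptavidin fluorescence for reagent binding. Each polyreactivity label reflects the gate a clone came from. Genes were amplified by colony PCR, sequenced by MiSeq 2 × 250 and filtered by CDR length.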

| Sequence | polyreactivity (PSR sort gate) |
| --- | --- |
| QVQLVESGGGLVQAGGSLRLSCAASGSIFVRNAMGWYRQAPGKERELVAAITYSGSRTYYADSVKGRFTISRDNAKNTVYLQMNSLKPEDTEVYYCAKVRVLVDKWSTFYEYYYWGQGTQVTVSS | low polyreactivity |
| QVQLVESGGGLVQAGGSLRLSCAASGSIFVRNVMGWYRQAPGKERELVAGISWNGGSTFYADSVKGRFTISRDNAKNTVYLQMNSLKPEDTAVDYCATPYGRHGWFYLYDYWGQGTQVTVSS | low polyreactivity |
| QVQLVESGGGLVQAGGSLRLSCAASGSIFVRYATMGWYRQAPGKERELVAAISRSGGSTYYADSVKGRFTISRDNAKNTVYLQMNSLKPEDTAVYYCANVSPSLRASGYDYWGQGTQVTVSS | high polyreactivity |
| QVQLVESGGGLVQAGGSLRLSCAASGSIFVRYTIVWYRQSTWKEMELVAAITSGGRTYYADSVKGRFTISRDNAKNTVYLQMNSLKPEDTAVYYSADVPHIRRYGFYYWGQGTQVTVSS | high polyreactivity |
| QVQLVESGGGLVQAGGSLRLSCAASGSIFVRYTMGWYRQAPGKERELVAAISWGGGSTYYADSVKGRFTISRDNAKNTVYLQMNSLKPEDTAVYYCNKRYIQLYDYWGQGTQVTVSS | low polyreactivity |
| QVQLVESGGGLVQAGGSLRLSCAASGSIFVRYTMGWYRQAPGKERELVAGISSRGGSTYYADSVKGRFTISRDNAKNTVYLQMNSLKPEDTAVYYCAATYFRRVVPGYNYWGQGTQVTVSS | high polyreactivity |
| QVQLVESGGGLVQAGGSLRLSCAASGSIFVSNAMGWYRQAPGKERELVAAITARDFSTYYADSVKGRFTISRDNAKNTVYLEMNSQKPEDTAVYYCAGNSSTYPSDDSYDYWGQGTQVTVSS | low polyreactivity |
| QVQLVESGGGLVQAGGSLRLSCAASGSIFVSNAMGWYRQAPGKERELVAAITARDVSTYYADSVKGRFTISRDNAKNTVYLQMISLKPEDTAVYYCAGNSSTYPSDDSYVYWGQGTQVTVSS | low polyreactivity |
| QVQLVESGGGLVQAGGSLRLSCAASGSIFVSNAMGWYRQAPGKERELVASISQDGGSTYYADSVKGRFTISRDNAKNTVYLQMNSLKPEDTADYYCAAKAEYYYYNGGTTYLVRYYYWGQGTQVTVSS | low polyreactivity |
| QVQLVESGGGLVQAGGSLRLSCAASGSIFVSNAMGWYRQAPGTERELVAAISGGGSTYYADSVKGRFTISRDNAKNTVFLQMNSLKPEDTAVYYCAKKGGHRTYGYDSWGQGTQVTVSS | low polyreactivity |
| QVQLVESGGGLVQAGGSLRLSCAASGSIFVSYAMGWYRQAPGKEREFVAAITRSGGSTYYADSVKGRFTISRDNAKNTVYLQMNSLKPEDTAVYYCAARSYLGAYRRYYWGQGTQVTVSS | high polyreactivity |
| QVQLVESGGGLVQAGGSLRLSCAASGSIFVSYAMGWYSQAPGKERELVAVISYSGVSTYYADSVKGRFTISRDNAKNTVYLQINSLKPEDTAVYYCATRQYGTRHILKYNYWGQGTQVTVSS | low polyreactivity |
| QVQLVESGGGLVQAGGSLRLSCAASGSIFVTYAMGWYRQAPGKERELVASITGRGGSTYYADSVKGRFTISRDNAKNTVYLQMNSLKPEDTAVYYCAARVASRHGWHNYWGQGTQVSVSS | high polyreactivity |
| QVQLVESGGGLVQAGGSLRLSCAASGSIFVVNGMGWYRQAPGKERELVAAITGDGTTYYADSVKGRFTISRDNAKNTVYLQMNSLKPEDSAVYYCAALFTPALSEYDYWGQGTQVTVSS | high polyreactivity |
| QVQLVESGGGLVQAGGSLRLSCAASGSIFVVYAMGWYRQAPGKERELVAAISWGIGSTYYADSVKGRFTISRDNAKYTVYLQMNSLKPEDTAVYYCAAETDIVLYDYWGQGTQVTVSS | low polyreactivity |
| QVQLVESGGGLVQAGGSLRLSCAASGSIFVVYAMGWYRQAPGKERELVAGISDGDNTNYADSVKGRVTISRDNAKNTVYLQMNSLKPEDTAVYYCNADGTSRNLEGFDYWGQGTQVTVSS | low polyreactivity |
| QVQLVESGGGLVQAGGSLRLSCAASGSIFVVYAMGWYRQAPGKERELVAGISGRDGSTYYADSVKGRFTISRDNGKNTVYLQMNSLKPEDTAVYYSARVYWGQGTQVTVSS | low polyreactivity |
| QVQLVESGGGLVQAGGSLRLSCAASGSIFVVYSMGWYRQAPGKERELVAGISYGDNTNYADSVKGRFTISRDNAKNTVYLQMNSLKPVDTAVYYCNADGTSRNLEGFDYWGQGTQVTVSS | low polyreactivity |
| QVQLVESGGGLVQAGGSLRLSCAASGSIFVYKAMGWYRQAPGKERELVAGITFIGGSTYYADSVKGRFTISRDNAKNTVYLQMNCLKPEDTAVYYCNADVAPGIFYGYDSWGQGTQVTVSS | low polyreactivity |
| QVQLVESGGGLVQAGGSLRLSCAASGSIFVYNAMGRYRQAPGKEREYVAAITYSGGSTYYADSVKGRFTISRDNAKNTVDLQMNSLKPEDTAVYYCAADYFQHVPKYGYWGQGTQVNVSS | low polyreactivity |
| QVQLVESGGGLVQAGGSLRLSCAASGSIFVYNAMGWYRPAPGKERELVAGITLIGGSTYYADSVKGRFTISRDNAKNTVYLQMNSLKPEDTAVYYCAVLVVGSTTQDEPYFSGVEHDYWGQGTQVTVSS | low polyreactivity |
| QVQLVESGGGLVQAGGSLRLSCAASGSIFVYNAMGWYRQAPGKERELVAAIDTVGSTNYADSVKGRFTISRDNAKNTVYLQMNSVKPVDPAVYYCAVVTPYWSFYEQVIPSNYWGQGTQVTVSS | low polyreactivity |

| Sequence | polyreactivity (PSR sort gate) |
| --- | --- |
| QVQLVESGGGLVQAGGSLRLSCAASGSIFVYNAMGWYRQAPGKERELVAAISQRGGSTYYADSVKGRFTISRDNAKNTVYLQMNSLKPEDTAVYYCAAAPGDSGDDYWGQGTQVTVSS | low polyreactivity |
| QVQLVESGGGLVQAGGSLRLSCAASGSIFVYNAMGWYRQAPGKERELVAAISQRGGSTYYADSVKGRFTISRDYSKNTVYLQMNSLKPEDTAVYYCAAGPGDSGDDYWGQGTQVTVSS | low polyreactivity |
| QVQLVESGGGLVQAGGSLRLSCAASGSIFVYNAMGWYRQAPGKERELVAGITFIGGSTYYADSVKGRFTISRDTAKNTVYLPMNSLKPEDTAVYYRNADGAPGIFYGYDSWGQGTQVTVSS | low polyreactivity |
| QVQLVESGGGLVQAGGSLRLSCAASGSIFVYNAMGWYRQAPGKEREWVAGITFIGGSTYYADSVKGRFTISRDNEKNTVYLQMNSLKPEDTAFYYCATDLPGGRYYGPYDYWGQGTQVTVSS | low polyreactivity |
| QVQLVESGGGLVQAGGSLRLSCAASGSIFVYNAMGWYRQAPGNERELVAGINYSGGSTYYADSVKGRFTISRDNATNTVYLQMNSLKPEDTAVYSCARRRPYQWPYNYWGQGTQVTVSS | high polyreactivity |
| QVQLVESGGGLVQAGGSLRLSCAASGSIFVYNDMGWYRPAPGKERELVAGIDWSGDRTYADSVKGRFTISRDNAKNTVYLQMNSLKPEDTAVYYCNADEWRWDEIIPYAVDYWGQGTQVTVSS | low polyreactivity |
| QVQLVESGGGLVQAGGSLRLSCAASGSIFVYYALGWYRQAPGKERELVAAISSSGDTTYYADSVKGRFTISRDNAKNTVYLQMNSLKPEDTAVYYCNTRNDRASQRWVSREMDYWGQGTQVTVSS | high polyreactivity |
| QVQLVESGGGLVQAGGSLRLSCAASGSIFVYYAMGWYRQAPGKERELVARITRGGRTYYADSVKGRFTISRDNAKNTVYLQMNSLKPEDTAVYYCAADYRVQLRKEYDYWGQGTQVTVSS | high polyreactivity |
| QVQLVESGGGLVQAGGSLRLSCAASGSIFVYYAMGWYRQAPGKERELVATINYNDGSTYYADSVKGRFTISRDNAKNTVYLQMNSLKPEDTAVYYCAADIVWSPESHPWYYVHYYYWGQGTQVTVSS | low polyreactivity |
| QVQLVESGGGLVQAGGSLRLSCAASGSIFVYYTMGWYRQAPGKERELVAAISISGTSTYYADSVKGRFTISRDNAKNTVYLQMNSLKPEDTAVYYCAADTYYGEDYWGQGTQVTVSS | low polyreactivity |
| QVQLVESGGGLVQAGGSLRLSCAASGSIFWANAMGWYRQAPGNERELVAAISRSGTSTFYADSVKGRFTISRDNAKNTVYLQMNSLKPEDTAVYYCNAVGSGYRSWYVYWGQGTQVTVSS | high polyreactivity |
| QVQLVESGGGLVQAGGSLRLSCAASGSIFWAYAMGWYRQAPGKERELVAAISRGGTTTYADSVKGRFTISRDNAKNTVYLQMNSLKPEDTAVYYCARRAVYSKRRYDYWGQGTQVTVSS | low polyreactivity |
| QVQLVESGGGLVQAGGSLRLSCAASGSIFWDYAMGWYRQSPGKERELVAAISGSGTSTYYADSVKGRFTISRDNAKNTVYLQMNSLKPEDTAVYYCAARIWTGRGRKLGNGYDYWGQGTQVTVSS | low polyreactivity |
| QVQLVESGGGLVQAGGSLRLSCAASGSIFWGNAMGWYRQAPGKERELVAAIDWSGGSTYYADSVKGRFTISRDNAKNTVYLQMHSLKPEDTAVYYCAASGRYDYDYWGQGTQVTVSS | low polyreactivity |
| QVQLVESGGGLVQAGGSLRLSCAASGSIFWGNAMGWYRQAPGKERELVAGISRGGSTYYADSVKGRFTISRDNAKNTVYLQMNSLKPEDTAVYYCNADSDPVTAGYDYWGQGTQVTVSS | low polyreactivity |
| QVQLVESGGGLVQAGGSLRLSCAASGSIFWGNTMGWYRQAPGKERELVAAISRSGSSTYYADSVKGRFTISRDNAKNTVYLQMNSLKPEDTAVYYCAASVPYYTGYYYNAYEYWGQGTQVTVSS | high polyreactivity |
| QVQLVESGGGLVQAGGSLRLSCAASGSIFWHNAMGWYRQAPGTEREFVAAISGSGGSTYYADSVKGRFTISRDNAKNTVYLQMISLKPEDTAVYYCAADIYYWSFYYSRYDYWGQGTQVTVSS | high polyreactivity |
| QVQLVESGGGLVQAGGSLRLSCAASGSIFWKNAMGWYRQAPGKERELVAAITRRGGSTYYADSVKGRFTISRDNAKNTVYLQMNSLKPEDTAVYYCAATGGAPYKIEWGQGTQVTVSS | low polyreactivity |
| QVQLVESGGGLVQAGGSLRLSCAASGSIFWKYAMGWYRQAPGKERELVAAISDGVSTNYADSVKGRFTISRDNAQNTVYLQMNSLKPEDTAVYYCNAETRERDPTREFDYWGQGTQVTVSS | low polyreactivity |
| QVQLVESGGGLVQAGGSLRLSCAASGSIFWNAMGWNKQAPGKERELVAAISWSGTRTYYADSVKGRFTISRDNAKNTVYLQMNSLKPEDTAVYYCNAVQWNAYYYWGQGTQVTVSS | high polyreactivity |
| QVQLVESGGGLVQAGGSLRLSCAASGSIFWNNDMGWYRPAPGKERELVAGISGGSTNYADSVKGRFTISRDNAKNTVYLQMNSLKPEDTAVYYCATERQWESRLEAYDYWGQGTQVTVSS | low polyreactivity |

Source: the nanobody polyreactivity screen of Harvey et al. (2022)
